Results: article PMC1887688

Biological target: MHC class II (HLA-DR1) on human LG-2 cells (human (endogenous in LG-2))
Test: radioligand binding

Substance: SMEZ-2, recombinant (natural protein)
- KD, high affinity site: 25 nM
- KD, low affinity site: 1000 nM
